Here are results for 1 substance from paper PMC2585067.

This assay addresses EYFP, free protein expressed in HeLa cells (Aequoria victoria). The experiment in a line: FRET or BRET.

The substance “ECFP, free protein expressed in HeLa cells” had a cross-bleed corrected FRET normalized to fluorescence of donor of 6.2%.
